Reference: article doi:10.1101/2022.01.19.476892 (bioRxiv, 2022)

Assays:
[1] = target: T1, SARS-CoV-2 WT RBD protein (residues 319-541) (SARS-CoV-2, UniProt P0DTC2); test: SPR
RBD protein of SARS-CoV [2] = target: T2, RBD protein of SARS-CoV (Severe acute respiratory syndrome …, UniProt P59594); test: SPR
[3] = target: T1, SARS-CoV-2 WT RBD protein (residues …); test: ELISA
RBD protein of SARS-CoV [4] = target: T2, RBD protein of SARS-CoV; test: cell-based or functional assay

| Binder | binding result [1] | other results |
| --- | --- | --- |
| EY6A (antibody, V domains shown) VH: EVQLVESGGGVVQPGRSLRLSCAASAFTFSSYDMHWVRQAPGKGLEWVAVISYDGSNKYYADSVKGRFTISRDNSKNTLYLQMNSLRAEDTAVYYCAKDGGKLWVYYFDYWGQGTLVTVSS VL: not shown | binds | – |
| S2X35 (antibody, V domains shown) VH: QVQLVQSGAEVKKPGASVKVSCKASGYTFTNYGISWVRQAPGQGLEWMGWISAYKGNTNYAQKLQGRVTMTTDTSTSTAYMELRSLRSDDTAVYYCARPDYQVLGYDFWIGYYGMDVWGQGTTVIVSS VL: QSVLTQPPSVSGAPGQRVTISCTGSSSNIGAGYDVHWYQQLPGTAPKLLIYGNTNRPSGVPDRFSGSKSGTSASLAITGLQAEDEADYYCQSYDSSLSGSEVVFGGGTKLTVL | binds | – |
| C022 (antibody, V domains shown) VH: QVQLQESGPGLVKPSETLSVTCTVSGGSISSSRYYWGWIRQPPGKGLEWIGSIYYSGSTYYNPSLKSRVTISVDTSKNQFSLKLSSVTAADTAVYYCARHAAAYYDRSGYYFIEYFQHWGQGTLVTVSS VL: DIQMTQSPSTLSASVGDSVTITCRASQSISSWLAWYQQKPGKAPKLLIYKASSLESGVPSRFSGSGSGTEFTLTISSLQPDDFATYYCQQYNNYRYTFGQGTKLEIK | binds | – |
| H014 (antibody, V domains shown) VH: EVQLVQSGAEVKKPGATVKISCKVSGYSFSNYYIHWVKQAPGKSLEWIGYIDPFNGGTSDNLKFKGAATLTADTSTDTAYMELSSLRSEDTAVYYCARSEYDPYYVMDYWGQGTTVTVSS VL: IVLTQSPFQSVSPKEKVTITCRASQSISSNLHWYQQKPDQSPKLLIKYASQSISGIPSRFSGSGSGTDFTLTINSLEAEDFGIYFCQQTNFWPYIFGQGTKLEIL | binds | – |
| VacW-209 (antibody, V domains shown) VH: QVQLVESGGGVVQPGRSLRLSCAASGFTFSSIAMHWVRQAPGKGLEWVAVMSFDGSIKYYGDSVKGRFTISRDNSKSTLYLQMNSLRAEDTAVYYCARGVQGYYDRSGYYNLDYNYGMDVWGQGTTVTVSS VL: QSVLTQPPSVSGAPGQRVTISCTGSSSNIGAGYDVHWYQQLPGTAPKLLIYGNSNRPSGVPDRFSGSKSGTSASLAITGLQAEDEADYYCQSYDSSLSGWVFGGGTKLTVL | – | Kd (RBD protein of SARS-CoV [2]): 0.54 nM; binding result [3]: binds; IC50 of neutralisation of SARS-CoV pseudovirus (HEK-293T-hACE2 cells) (RBD protein of SARS-CoV [4]): 0.141 mg/L |
| C118 (antibody, V domains shown) VH: QVQLVESGGGVVQPGRSLRLSCAASGFTFSNYAMHWVRQAPGKGLEWVAVISYDGSNKYYADSVKGRFTISRDNSKNTLYLQMNSLRAEDTAIYYCASGYTGYDYFVRGDYYGLDVWGQGTTVTVSS VL: QPVLTQSPSASASLGASVKLTCTLSSGHSSYAIAWHQQQPEKGPRYLMKLNTDGSHSKGDGIPDRFSGSSSGAERYLTISSLQSEDEADYYCQTWGTGILVFGGGTKLTVL | binds | – |
